The target of data set [1] is T1, mouse N-cadherin with an uncleaved prodomain expressed on L cells (furin site RQKR replaced with Factor Xa … (mouse, UniProt P15116 160-906)).
T1 construct: whole, on cells; Prodomain is still attached in the assay; also called unprocessed N-cadherin; L cell transfectants expressing unprocessed N-cadherin
T1 sequence (looked up): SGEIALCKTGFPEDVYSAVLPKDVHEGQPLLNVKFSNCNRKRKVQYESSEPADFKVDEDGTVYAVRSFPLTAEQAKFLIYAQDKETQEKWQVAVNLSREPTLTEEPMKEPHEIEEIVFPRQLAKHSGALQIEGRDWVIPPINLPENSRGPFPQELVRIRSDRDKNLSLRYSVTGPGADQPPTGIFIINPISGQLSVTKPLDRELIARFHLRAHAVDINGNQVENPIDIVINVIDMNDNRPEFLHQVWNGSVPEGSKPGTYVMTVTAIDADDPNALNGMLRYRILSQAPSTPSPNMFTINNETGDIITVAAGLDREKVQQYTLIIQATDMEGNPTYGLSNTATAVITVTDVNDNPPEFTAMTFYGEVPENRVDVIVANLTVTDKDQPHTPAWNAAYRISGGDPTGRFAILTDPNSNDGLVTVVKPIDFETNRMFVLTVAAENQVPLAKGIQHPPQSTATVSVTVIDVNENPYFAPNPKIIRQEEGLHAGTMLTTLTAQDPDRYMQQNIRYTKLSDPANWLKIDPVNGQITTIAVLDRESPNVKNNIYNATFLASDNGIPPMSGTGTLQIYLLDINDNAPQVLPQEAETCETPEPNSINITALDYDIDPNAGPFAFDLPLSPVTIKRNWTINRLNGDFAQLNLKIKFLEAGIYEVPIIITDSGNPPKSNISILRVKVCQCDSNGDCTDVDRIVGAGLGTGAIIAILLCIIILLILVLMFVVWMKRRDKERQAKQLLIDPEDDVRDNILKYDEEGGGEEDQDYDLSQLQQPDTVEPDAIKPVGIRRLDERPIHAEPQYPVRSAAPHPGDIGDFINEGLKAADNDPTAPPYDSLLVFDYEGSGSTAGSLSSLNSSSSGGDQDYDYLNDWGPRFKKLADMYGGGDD
As to the kind of experiment: adhesion of L cell transfectants to coated N-cadherin Fc. The procedure:
Adhesion tests were conducted substantially as described in Example 1. Briefly, K562 Cells or L cells transfected with wild type or mutant N-cadherin were allowed to settle for 45 minutes at 37° C. onto N-cadherin Fc fusion proteins coated at 1 μg/ml to a 96 well plate. Non-adherent cells were then washed off and residual adherent cells were quantitated by measuring acid phosphatase activity. Assays were conducted in quadruplicate and results are expressed as % cells adhering +/−SEM.
L cells expressing mouse N-cadherin with an uncleaved prodomain (see Koch et al., 2004) were obtained from Dr Weisong Shan (Montreal Neurological Institute). The normal furin cleavage site, RQKR, had been replaced with a Factor Xa site, IEGR, to give the correct N-terminus after digestion. […] L cells suspended in HBSS containing 0.1% BSA were treated with 0.01% trypsin (Sigma, Type XI) in the presence of 2 mM Ca²⁺ for 10 minutes at 37° C. and the digestion was then quenched with soyabean trypsin inhibitor, 0.5 mg per ml (Sigma, Type I-S). Cells were then washed and tested for adhesion to N-cadherin Fc-fusion protein. To check for complete removal of the prodomain, the cells were lysed in SDS sample buffer and the cadherin analysed by SDS PAGE under reducing conditions on a 4-12% gradient gel. […]

Data set [2] concerns the molecule itself. The experiment in a line: bead aggregation assay, 1.25 mM CaCl2. The procedure: Dynabeads (Dynal Biotech) coupled to Protein A were coated with N-cadherin Fc at 1 μg/ml in calcium and magnesium-free HBSS containing 0.1% Tween 20, 1% FCS and 4 mM EDTA. Eppendorf tubes containing beads and fusion protein were rotated slowly for 1 hour at room temperature to allow binding to take place. The beads were then washed in the above assay buffer lacking EDTA and then resuspended in the same buffer supplemented with 1.25 mM CaCl₂. Beads were allowed to aggregate in a volume of 100 μl for 2 hours at 37° C. by slow rotation, in an eppendorf tube, at approximately 20 rpm. Aggregation was then assessed by light microscopy.
In the experiments described so far in this example, disruption of the salt bridge prevented intramolecular docking of Trp 2 in one or both components of the dimer. In an alternative strategy to prevent intramolecular docking, we removed Trp2 by introducing the mutation W2G or blocked the hydrophobic acceptor pocket with an isoleucine side chain projecting into the cavity using the mutation A801. N-cadherin Fc fusion proteins with these mutations were then tested against our panel of K562 transfectants (FIG. 17a). In keeping with the explanation given in FIG. 5, the W2G mutant acted as a strand acceptor and therefore adhered strongly to the E89A mutant whereas the A80I mutant was a strand donor and adhered to the GG extension mutant. […] In contrast, beads coated with the W2G or A801 mutants and tested separately clustered in twos and threes, whereas beads coated with the negative control mutant, D134A, were entirely monodisperse. To test whether all five extracellular domains of N-cadherin (EC1-EC5) are necessary for the strong adhesive interaction between the complementary mutants, we compared the adhesive activity of the W2G mutant prepared as a full length (EC1-EC5) Fc fusion protein with that of the same mutant prepared as a truncated construct containing only cadherin domains EC1 and EC2.

B1: chicken N-cadherin-Fc fusion protein with the mutation D134A, dimeric (Fc fusion, UniProt P10288 165-728, looked up)
chain: DWVIPPINLPENSRGPFPQELVRIRSDRDKSLSLRYSVTGPGADQPPTGIFIINPISGQLSVTKPLDREQIASFHLRAHAVDVNGNQVENPIDIVINVIDMNDNRPEFLHQVWNGTVPEGSKPGTYVMTVTAIAADDPNAQNGMLRYRILSQAPSSPSPNMFTINNETGDIITVAAGLDREKVQQYTLIIQATDMEGNPTYGLSNTATAVITVTDVNDNPPEFTAMTFYGEVPENRVDVIVANLTVTDKDQPHTPAWNARYQMTGGDPTGQFTILTDPNSNDGLVTVVKPIDFETNRMFVLTVAAENQVPLAKGIQHPPQSTATVSITVIDVNESPYFVPNPKLVRQEEGLLAGSMLTTFTARDPDRYMQQTSLRYSKLSDPANWLKIDPVNGQITTTAVLDRESIYVQNNMYNATFLASDNGIPPMSGTGTLQIYLLDINDNAPQVNPKEATTCETLQPNAINITAVDPDIDPNAGPFAFELPDSPPSIKRNWTIVRISGDHAQLSLRIRFLEAGIYDVPIVITDSGNPHASSTSVLKVKVCQCDINGDCTDVDRIVGAGLGT
notes: extracellular domain; also called D134A mutant; N-cadherin Fc mutant D134A; not shown: hinge region, CH2 and CH3 domains of human IgG1 heavy chain (vector pIgSig)
Regarding B1, the figures for the binding result in data set [1] and in data set [2] were “no binding (tested: Fc fusion protein coated at 1 µg/ml)” and “no binding (tested: beads coated at 1 µg/ml)”, respectively.

B2: wild type chicken N-cadherin-Fc fusion protein, dimeric (linked by disulphide bonds at the Ig hinge region) (Fc fusion, UniProt P10288 165-729, looked up)
chain: DWVIPPINLPENSRGPFPQELVRIRSDRDKSLSLRYSVTGPGADQPPTGIFIINPISGQLSVTKPLDREQIASFHLRAHAVDVNGNQVENPIDIVINVIDMNDNRPEFLHQVWNGTVPEGSKPGTYVMTVTAIDADDPNAQNGMLRYRILSQAPSSPSPNMFTINNETGDIITVAAGLDREKVQQYTLIIQATDMEGNPTYGLSNTATAVITVTDVNDNPPEFTAMTFYGEVPENRVDVIVANLTVTDKDQPHTPAWNARYQMTGGDPTGQFTILTDPNSNDGLVTVVKPIDFETNRMFVLTVAAENQVPLAKGIQHPPQSTATVSITVIDVNESPYFVPNPKLVRQEEGLLAGSMLTTFTARDPDRYMQQTSLRYSKLSDPANWLKIDPVNGQITTTAVLDRESIYVQNNMYNATFLASDNGIPPMSGTGTLQIYLLDINDNAPQVNPKEATTCETLQPNAINITAVDPDIDPNAGPFAFELPDSPPSIKRNWTIVRISGDHAQLSLRIRFLEAGIYDVPIVITDSGNPHASSTSVLKVKVCQCDINGDCTDVDRIVGAGLGTG
notes: extracellular domain; also called dimeric N-cadherin-Fc; wild type N-cadherin; not shown: hinge region, CH2 and CH3 domains of human IgG1 heavy chain (vector pIgSig)
On to B2, for which the binding result in data set [1] is reported as “no binding (tested: Fc fusion protein coated at 1 µg/ml)”; in data set [2] it was “binds”.
